The values that follow come from patent US20120093808A1 (SHIONOGI, published 2012).

The term Kd denotes the equilibrium constant for the complex coming apart. By koff is commonly meant the first-order rate constant of dissociation. By kon is commonly meant the rate constant with which the complex forms.

Experiment [1] has as its target T1, recombinant full-length PcrV protein (1-294) of Pseudomonas aeruginosa (Pseudomonas aeruginosa, in the biotin-labeled form: PEO-maleimide biotin on the cysteine inserted between histidine tag and start codon).
T1 construct: also called PcrV antigen; recombinant PcrV; not shown: N-terminal histidine tag encoded by the expression vector (pWE30 [sic] / pQE30)
Kind of experiment: surface plasmon resonance analysis, PcrV antigen. A general note: In SPR one partner is held on a chip, and binding of the other changes the refractive index at the surface.

The target in experiment [2] is T1, recombinant full-length PcrV protein …. Kind of experiment: SPR, BIAcore T-100, culture supernatant, recombinant PcrV (FIG. 13).
Experiment [3] shares this target. The experiment in a line: surface plasmon resonance analysis (BIAcore T-100), culture supernatant, recombinant PcrV.
For another experiment, the target named is T2, truncated PcrV (136-233) (Pseudomonas aeruginosa).
T2 construct: also called truncated PcrV protein
Kind of experiment: Western blotting: purified recombinant truncated PcrV on SDS-PAGE/PVDF, antibody at 1 ug/mL, labeled anti-mouse IgG, ECL [panel Truncated PcrV (136-233]. In general terms: Immunoblotting shows a protein as a band on a membrane.

Experiment [4] addresses T1, recombinant full-length PcrV protein …. Kind of experiment: SPR, BIAcore T100, antibody captured by anti-mouse antibody on CM5 chip, recombinant PcrV as analyte.
The target is the same in experiment [5]. The experiment in a line: surface plasmon resonance analysis, PcrV antigen. This is another data set of the same source.

B1: humanized monoclonal antibody h1F3 (antibody, V domains shown)
VH: QVQLVQSGAEVKKPGASVKVSCKASGYSFTSYWMHWVRQAPGQGLEWMGEINPSNGRTNYNEKFNTRVTMTRDTSTSTVYMELSSLRSEDTAVYYCVLYGNYVVYYTMDYWGQGT
VL: DIQLTQSPSFLSASVGDRVTITCSASTSVSYMEWYQQKPGKAPKLLIYTTSKLASGVPSRFSGSGSGTEFTLTISSLQPEDFATYYCHQWRNYPFTFGQGTKLEIKR
notes: also called humanized antibody; humanized PcrV antibody
With B1, in experiment [1], the dissociation constant (Kd) turned out to be 0.38 nM, the dissociation rate constant (koff) was determined as 0.00033 s⁻¹ and the on-rate (kon) turned out to be 870000 M⁻¹ s⁻¹.

B2: antibody including the heavy chain of the template humanized antibody and the light chain of the mutant humanized antibody (antibody, V domains shown)
VH: QVQLVQSGAEVKKPGASVKVSCKASGYSFTSYWMHWVRQAPGQGLEWMGEINPSNGRTNYNEKFNTRVTMTRDTSTSTVYMELSSLRSEDTAVYYCARYGNYVVYYTMDYWGQGTTVTVSS
VL: DIQLTQSPTFLSASVGDRVTITCSASTSVSYMEWYQQKPGKAPKILIYTTSKLASGVPSRFSGSGSGTEYTLTISSLQPEDFATYYCHQWRNYPFTFGQGTKLEIK
notes: Human IgG4Pro (S228P) and human Igkappa constant regions; tested as culture supernatant; also called HT/LB
Consider B2, for which, in experiment [2], the Kd stood at 650 nM. In addition, in experiment [3], the off-rate constant (koff) was determined as 0.04 s⁻¹ and the on-rate constant (kon) was 62000 M⁻¹ s⁻¹.

B3: mouse monoclonal antibody 1F3 (antibody, V domains shown)
VH: QVQLQQPGAELVKPGASVKLSCKASGYSFTSYWMHWVKQRPGQGLEWIGEINPSNGRTNYNEKFNTKATLTVDTSSSTAYMQLSSLTSEDSAVYYCVLYGNYVVYYTMDYWGQGTSVTVSS
VL: QIVLTQSPTIMSASLGEEITLTCSASTSVSYMEWYQQKSGTSPKILIYTTSKLASGVPSRFSGSGSGTFYSLTISSVEAEDAADYYCHQWRNYPFTFGSGTKLEIK
notes: also called m1F3; mouse PcrV antibody
As for B3, in the experiment with truncated PcrV (136-233), the binding result is listed as “binds”. Also, in experiment [4], the Kd was found to be 0.37 nM.

B4: mouse-human chimeric 1F3 antibody (antibody, V domains shown)
VH: B3 VH
VL: B3 VL
notes: Human IgG4Pro (S228P) heavy constant region and human Igkappa constant region; tested as culture supernatant; also called mouse-human chimeric antibody; mouse/human chimeric antibody
For the molecule B4, the values for the Kd in experiment [5], in experiment [1] and in experiment [2] were 0.27 nM, 0.49 nM and 0.26 nM, respectively. Also, the koff worked out at 0.00023 s⁻¹ in experiment [5], 0.00037 s⁻¹ in experiment [1] and 0.00051 s⁻¹ in experiment [3]. The kon stood at 850000 M⁻¹ s⁻¹ in experiment [5], 740000 M⁻¹ s⁻¹ in experiment [1] and 2e+06 M⁻¹ s⁻¹ in experiment [3].
